In the domain aggregation screens of Martell et al. (2025):

Test: soluble fraction after stress (log2 fold change); higher = more stays soluble; pooled small domains, quantitative proteomics
Conditions: stress: 50 degC
Outline: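 The measure of aggregation propensity here is the base-two logarithm of the fold change in the soluble amount of each protein after stress. A higher value means more of that protein stays in solution. Stress was applied at 50°C to pooled libraries of small protein domains, read out by high-throughput quantitative proteomics.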

Sequence | soluble fraction (log2)
HMNKYQFESKIHIYRATKRMTQQELADLVGVSRQTIMQLERNRYNPSMMLAYGIAKVFDVTIEDLFDFSEV | -2.05
HMERTVEVVDINDVFSQFLRLYSRERAAGLLSVFKRVEHGLSWQGNPVLLERILSNVFENAIKYAA | -0.0515
HMKADTSPEAQKKIIAAFEPYSVNKDQIEKLIQRRIDSITPAQVIRLRKILASLKDGMSSPEDWFE | 0.0361
HMRDQQHNIYLLEKAKRLYEEFLGDNRHIIAAEMARFEAVLETQDAIIIQRAQQQFSEFLNRFDG | -1.63
HMALQDKYKQLVDTATASGVANLQVREQDGVLYIDGEAPSGSVKDQLWDIYGKIDPNFLSGDVVMNINV | -0.0683
HMGELVIPPLRERTVVDAVAEAERLGFVVQVEPVASSLPEGRVLGQSPEPGTRARKSQVVVLQVSRG | -0.148
HMGEVVRAPMPGNVLKMEVAQGQEVEEGDLLLVLEAMKMENDIVAPKGGIVIQLVVDKGMVVETDDPLVVI | 0.0323
HMETLSKVGSTGSEVRQIQTKLKNWGYFSDKVDGIYGEKTRAAVVWFQKKNGLTADGIAGPATLKAMGIYT | -0.171
HMQDNLKKYMDKLSQRDAELIVYKYLWNMSEKEISEMFHIKQEQVHVYVGRAKKRLFKIIKKEME | -0.025
HMYFMDEETWESKKTLLNDWYEANPEYADRRAISDGLFKIGDLQPDFRRRHWGSIGVIFADIPNSPMG | -0.915
HMGKRPTIQMVAEMAGVSRGTVDRVLNGRSYVSAQVRQRVLAALQETGYISSREHHQQALQS | -0.0246
HMDHTYKHIELTGSSEKGIEEAVQNALAKASESVQNMRWLEVTDTRGHIEDGRVAHWQVTVKVGFTL | -0.0248
HMTESSTYFEKIGTEISQFKSIPKNIDVIIIEKLIYSGIIKKVDNEENSRVYYILTRKGRYFWKRYVLS | 0.0633
HMSDEEAISKLPGVGPAILEKLKEAGYNDIMTIAVDSPKNLAELAEIGEPTAAKIIAAAKKAAD | 0.0933
HMHHGALKQALLDETARILAEEGESALSLRRLASNLGVSRTAPYNHFDNKDALLSAVAEEGFRR | -0.032
HMLVKKYTEEETGRQAELSKQLAELSKAYYNTGNSMVDDAVFDKLRDELSSLEKESGFAYDISPNVS | -0.953
HMTPEGAYTVSEIVKVINSFADEYKVPFTMHVSGYKYEEIAQQLGLPIGTVKSRIFFARKRLQELLN | -0.952
HMAKDSQSADVLQAIFDGSKVLNGLALDQDMRWDLINGLVMSGRLGVEAIEAEAAKLAKLVEELEFR | -0.892
HMSKYERVYTGSEINVNHLKSQLEDAGISSVVRNDHESAIRAGFGSDYDRGVLLFVEKDNLLRAKHIIEKT | 0.0318
HMDIDASEVRGIISQYINEPDGRVSYILETIQKKYRYLPEEAIRIVAQELEVPLTQLFGVATFYAAFSL | 0.0443
HMPKSVRQSFVYSPMYRDVEYLADFLRNNNKDDSSVSASGDKLVYYGTADEIARVKSVLKGVDV | -0.026
HMENVIYGINGPVVTVRNSRSFSMMEMVFVGNERLVGEVIGITDKITTIQVYEETTGLRPGEPVYGTGSPM | -3.97
HMSKTKDVLVQLMAERGLTQSDIARALSVRPQAVQQWVSGKTRPTGKNLEALAEFLQLPPAVIVHGP | -0.00766
HMSVDVGMQLRKLREERKISMRELARLSGLSANALSMIERGLTSPSVSTLNKLAGALEVPITAFFRI | -0.285
HMEIGLIRVDSRLIHGQVITKWLNYSKANVIVVVDDELSKDSFMSEIYKASAPNGIIVEILSIDDFMKNT | 0.00544
HMKVWYAGINAQRVGPMTLGAMEQQIRYGRVLFSTLIWKSPMPQWVPAGDVPELRRLLDEHMLNQMP | -0.381
HMFMVAGHLSEKNGYFYAVINYNDSLGNRKTKWMSTGLTVKGNKKRAEAILAEKRRTFQPDEPV | -1.69
HMDKGEQILQQALDKLPPKQRQVFEMRYFDEMPYREIATITETSEGALKASYHHAVKKIQQYISHL | -0.397
HMGQMGHAVVAKTDLAVGTPLTRDLVAVREVPVEWLHSSAITPEQFERAAGAVLAQPARGGEPLVWSQLEE | 0.0906
HMLEIGRYNTLTVLRKVDFGYYLDGLDYGDILMPAKYAATELEAGDEVDVFIYLDSSEKLIATTETPIAQ | -3.38
